Assays:
[1] = target: HIV-1 Env of strain C3347.c11 (HIV-1)
[2] = target: HIV-1 Env of strain 0330.v4.c3 (HIV-1)
[3] = target: HIV-1 Env of strain PVO.4 (HIV-1)
[4] = target: HIV-1 Env of strain 703357.C02 (HIV-1)
[5] = target: HIV-1 Env of strain Q769.d22 (HIV-1)
[6] = target: HIV-1 Env of strain 3301.v1.c24 (HIV-1)
[7] = target: HIV-1 Env of strain 89-F1_2_25 (HIV-1)
[8] = target: HIV-1 Env of strain 1054_07_TC4_1499 (HIV-1)
[9] = target: HIV-1 Env of strain SC422661.8 (HIV-1)
[10] = target: HIV-1 Env of strain CAAN5342.A2 (HIV-1)
[11] = target: HIV-1 Env of strain T251-18 (HIV-1)
[12] = target: HIV-1 Env of strain 6811.v7.c18 (HIV-1)
[13] = target: HIV-1 Env of strain CNE17 (HIV-1)
[14] = target: HIV-1 Env of strain X1254_c3 (HIV-1)
[15] = target: HIV-1 Env of strain CNE30 (HIV-1)
[16] = target: HIV-1 Env of strain WEAU_d15_410_787 (HIV-1)
[17] = target: HIV-1 Env of strain CNE21 (HIV-1)
[18] = target: HIV-1 Env of strain Q461.e2 (HIV-1)
[19] = target: HIV-1 Env of strain ZM214M.PL15 (HIV-1)
[20] = target: HIV-1 Env of strain TRJO4551.58 (HIV-1)
[21] = target: HIV-1 Env of strain 6480.v4.c25 (HIV-1)
[22] = target: HIV-1 Env of strain 1006_11_C3_1601 (HIV-1)
[23] = target: HIV-1 Env of strain 928-28 (HIV-1)
[24] = target: HIV-1 Env of strain CNE58 (HIV-1)
[25] = target: HIV-1 Env of strain Q842.d12 (HIV-1)
[26] = target: HIV-1 Env of strain 3016.v5.c45 (HIV-1)
[27] = target: HIV-1 Env of strain 6540.v4.c1 (HIV-1)
[28] = target: HIV-1 Env of strain X2131_C1_B5 (HIV-1)
[29] = target: HIV-1 Env of strain AC10.0.29 (HIV-1)
[30] = target: HIV-1 Env of strain ZM249M.PL1 (HIV-1)
[31] = target: HIV-1 Env of strain Ce0682_E4 (HIV-1)
[32] = target: HIV-1 Env of strain ZM247v1(Rev-) (HIV-1)
[33] = target: HIV-1 Env of strain REJO4541.67 (HIV-1)
[34] = target: HIV-1 Env of strain Du172.17 (HIV-1)
[35] = target: HIV-1 Env of strain Ce0393_C3 (HIV-1)
[36] = target: HIV-1 Env of strain 1056_10_TA11_1826 (HIV-1)
[37] = target: HIV-1 Env of strain T250-4 (HIV-1)
[38] = target: HIV-1 Env of strain R1166.c01 (HIV-1)
[39] = target: HIV-1 Env of strain 3718.v3.c11 (HIV-1)
[40] = target: HIV-1 Env of strain Ce1176_A3 (HIV-1)
[41] = target: HIV-1 Env of strain P0402_c2_11 (HIV-1)
[42] = target: HIV-1 Env of strain HIV-16845-2.22 (HIV-1)
[43] = target: HIV-1 Env of strain C2101.c01 (HIV-1)
[44] = target: HIV-1 Env of strain Ce703010054_2A2 (HIV-1)
[45] = target: HIV-1 Env of strain P1981_C5_3 (HIV-1)
[46] = target: HIV-1 Env of strain 3817.v2.c59 (HIV-1)
[47] = target: HIV-1 Env of strain ZM109F.PB4 (HIV-1)
[48] = target: HIV-1 Env of strain C1080.c03 (HIV-1)
[49] = target: HIV-1 Env of strain 62357_14_D3_4589 (HIV-1)
[50] = target: HIV-1 Env of strain Q23.17 (HIV-1)
[51] = target: HIV-1 Env of strain 0815.v3.c3 (HIV-1)
[52] = target: HIV-1 Env of strain 3415.v1.c1 (HIV-1)
[53] = target: HIV-1 Env of strain CNE20 (HIV-1)
[54] = target: HIV-1 Env of strain Ce2060_G9 (HIV-1)
[55] = target: HIV-1 Env of strain RHPA4259.7 (HIV-1)
[56] = target: HIV-1 Env of strain 6535.3 (HIV-1)
[57] = target: HIV-1 Env of strain 6545.v4.c1 (HIV-1)

NIH45-46 G54W IgG (antibody)
In vitro neutralization IC80 [1]: 0.028 µg/mL
In vitro neutralization IC80 [2]: 0.11 µg/mL
In vitro neutralization IC80 [3]: 0.16 µg/mL
In vitro neutralization IC80 [4]: 17.6 µg/mL
In vitro neutralization IC80 [5]: 0.009 µg/mL
In vitro neutralization IC80 [6]: 4 ng/mL
In vitro neutralization IC80 [7]: > 50 µg/mL
In vitro neutralization IC80 [8]: 0.165 µg/mL
In vitro neutralization IC80 [9]: 0.07 µg/mL
In vitro neutralization IC80 [10]: 0.21 µg/mL
In vitro neutralization IC80 [11]: 0.92 µg/mL
In vitro neutralization IC80 [12]: 0.033 µg/mL
In vitro neutralization IC80 [13]: 0.127 µg/mL
In vitro neutralization IC80 [14]: 0.018 µg/mL
In vitro neutralization IC80 [15]: 0.196 µg/mL
In vitro neutralization IC80 [16]: 3 ng/mL
In vitro neutralization IC80 [17]: 0.16 µg/mL
In vitro neutralization IC80 [18]: 0.091 µg/mL
In vitro neutralization IC80 [19]: 0.15 µg/mL
In vitro neutralization IC80 [20]: 0.05 µg/mL
In vitro neutralization IC80 [21]: 0.021 µg/mL
In vitro neutralization IC80 [22]: 0.008 µg/mL
In vitro neutralization IC80 [23]: 0.25 µg/mL
In vitro neutralization IC80 [24]: 0.05 µg/mL
In vitro neutralization IC80 [25]: 0.025 µg/mL
In vitro neutralization IC80 [26]: 15.4 µg/mL
In vitro neutralization IC80 [27]: > 50 µg/mL
In vitro neutralization IC80 [28]: 0.24 µg/mL
In vitro neutralization IC80 [29]: 0.63 µg/mL
In vitro neutralization IC80 [30]: 7 ng/mL
In vitro neutralization IC80 [31]: 0.039 µg/mL
In vitro neutralization IC80 [32]: 2.6 µg/mL
In vitro neutralization IC80 [33]: 0.013 µg/mL
In vitro neutralization IC80 [34]: 42.9 µg/mL
In vitro neutralization IC80 [35]: 0.089 µg/mL
In vitro neutralization IC80 [36]: 0.16 µg/mL
In vitro neutralization IC80 [37]: 44.9 µg/mL
In vitro neutralization IC80 [38]: 0.51 µg/mL
In vitro neutralization IC80 [39]: 0.04 µg/mL
In vitro neutralization IC80 [40]: 0.45 µg/mL
In vitro neutralization IC80 [41]: 0.023 µg/mL
In vitro neutralization IC80 [42]: 2.1 µg/mL
In vitro neutralization IC80 [43]: 0.17 µg/mL
In vitro neutralization IC80 [44]: 0.077 µg/mL
In vitro neutralization IC80 [45]: 0.07 µg/mL
In vitro neutralization IC80 [46]: > 50 µg/mL
In vitro neutralization IC80 [47]: 0.07 µg/mL
In vitro neutralization IC80 [48]: 0.91 µg/mL
In vitro neutralization IC80 [49]: 0.07 µg/mL
In vitro neutralization IC80 [50]: 0.03 µg/mL
In vitro neutralization IC80 [51]: 3 ng/mL
In vitro neutralization IC80 [52]: 0.023 µg/mL
In vitro neutralization IC80 [53]: 0.48 µg/mL
In vitro neutralization IC80 [54]: 0.042 µg/mL
In vitro neutralization IC80 [55]: 0.007 µg/mL
In vitro neutralization IC80 [56]: 0.13 µg/mL
In vitro neutralization IC80 [57]: > 50 µg/mL

NIH45-46 G54Y IgG (antibody)
In vitro neutralization IC80 [1]: 0.052 µg/mL
In vitro neutralization IC80 [2]: 0.09 µg/mL
In vitro neutralization IC80 [3]: 0.18 µg/mL
In vitro neutralization IC80 [4]: 30.6 µg/mL
In vitro neutralization IC80 [5]: 0.024 µg/mL
In vitro neutralization IC80 [6]: 14 ng/mL
In vitro neutralization IC80 [7]: > 50 µg/mL
In vitro neutralization IC80 [8]: 0.236 µg/mL
In vitro neutralization IC80 [9]: 0.09 µg/mL
In vitro neutralization IC80 [10]: 0.27 µg/mL
In vitro neutralization IC80 [11]: 1.16 µg/mL
In vitro neutralization IC80 [12]: 0.059 µg/mL
In vitro neutralization IC80 [13]: 0.264 µg/mL
In vitro neutralization IC80 [14]: 0.041 µg/mL
In vitro neutralization IC80 [15]: 0.263 µg/mL
In vitro neutralization IC80 [16]: 8 ng/mL
In vitro neutralization IC80 [17]: 0.29 µg/mL
In vitro neutralization IC80 [18]: 0.103 µg/mL
In vitro neutralization IC80 [19]: 0.23 µg/mL
In vitro neutralization IC80 [20]: 0.07 µg/mL
In vitro neutralization IC80 [21]: 0.051 µg/mL
In vitro neutralization IC80 [22]: 0.021 µg/mL
In vitro neutralization IC80 [23]: 0.33 µg/mL
In vitro neutralization IC80 [24]: 0.11 µg/mL
In vitro neutralization IC80 [25]: 0.045 µg/mL
In vitro neutralization IC80 [26]: > 50 µg/mL
In vitro neutralization IC80 [27]: > 50 µg/mL
In vitro neutralization IC80 [28]: 0.39 µg/mL
In vitro neutralization IC80 [29]: 0.9 µg/mL
In vitro neutralization IC80 [30]: 11 ng/mL
In vitro neutralization IC80 [31]: 0.065 µg/mL
In vitro neutralization IC80 [32]: 3.57 µg/mL
In vitro neutralization IC80 [33]: 0.02 µg/mL
In vitro neutralization IC80 [34]: > 50 µg/mL
In vitro neutralization IC80 [35]: 0.134 µg/mL
In vitro neutralization IC80 [36]: 0.189 µg/mL
In vitro neutralization IC80 [37]: > 50 µg/mL
In vitro neutralization IC80 [38]: 0.84 µg/mL
In vitro neutralization IC80 [39]: 3.85 µg/mL
In vitro neutralization IC80 [40]: 0.58 µg/mL
In vitro neutralization IC80 [41]: 0.049 µg/mL
In vitro neutralization IC80 [42]: 2.75 µg/mL
In vitro neutralization IC80 [43]: 0.27 µg/mL
In vitro neutralization IC80 [44]: 0.07 µg/mL
In vitro neutralization IC80 [45]: 0.09 µg/mL
In vitro neutralization IC80 [46]: > 50 µg/mL
In vitro neutralization IC80 [47]: 0.168 µg/mL
In vitro neutralization IC80 [48]: 1.83 µg/mL
In vitro neutralization IC80 [49]: 0.09 µg/mL
In vitro neutralization IC80 [50]: 0.06 µg/mL
In vitro neutralization IC80 [51]: 15 ng/mL
In vitro neutralization IC80 [52]: 0.037 µg/mL
In vitro neutralization IC80 [53]: 2.4 µg/mL
In vitro neutralization IC80 [54]: 0.068 µg/mL
In vitro neutralization IC80 [55]: 0.02 µg/mL
In vitro neutralization IC80 [56]: 0.24 µg/mL
In vitro neutralization IC80 [57]: > 50 µg/mL

Source: US20200165325A1
